Data taken from patent US20170145069A1 (Novo Nordisk, published 2017).
Positions count from the first letter of the chain named. *1 amine or outer side, *2 acyl side, *3 side chain or, on linkers, in order; H or OH if unused. Where no end group is shown, it is not given here. Side-chain parts run from the residue outwards. [ ]: non-standard residue; d: D form. The star is where a group is joined. Dodecanoyl(12-OPh(4-COOH)) = O=C(O)c1ccc(OCCCCCCCCCCCC(=O)*)cc1; Decanoyl(10-(4-HOOC-PhO)) = O=C(O)c1ccc(OCCCCCCCCCC(=O)*)cc1; γGlu = O=C(O)[C@H](CCC(=O)[*:2])N[*:1]; 13‑carboxytridecanoyl = C14 diacid; AEEA = NCCOCCOCC(=O)O; Aib = CC(C)(N)C(=O)O

B1: Comparative compound of Example 2a: Compound of Example 17, Chem. 36, in WO 2011/080103 (peptide)
peptide: HXEGTFTSDVSSYLEGQAAKEFIAHLVQGRK
modifications: Aib at 8; eps-amino of Lys26 and Lys37 each acylated with 10-(4-carboxyphenoxy)decanoyl via the gGlu-2xOEG linker (as Example 2, only the linker differs)
B2: GLP-1 derivative of Example 2 (Chem. 21), N^eps26,N^eps37-diacylated [Aib^8,His^31,Gln^34,Lys^37]-GLP-1-(7-37)-peptide (peptide)
peptide: B1 peptide
modifications: Aib at 8; eps-amino of Lys26 and Lys37 each acylated with 10-(4-carboxyphenoxy)decanoyl-gGlu-Ser-Ser-Gly-Ser-Ser-Gly
B3: GLP-1 derivative of Example 12 (Chem. 31), N^eps26,N^eps37-diacylated [Aib^8,His^34,Lys^37]-GLP-1-(7-37)-peptide (peptide)
peptide: B1 peptide with H25W, Q28H
modifications: Aib at 8; eps-amino of Lys26 and Lys37 each acylated with 13-carboxytridecanoyl-gGlu-Ser-Ser-Gly-Ser-Ser-Gly
B4: GLP-1 derivative of Example 24 (Chem. 43), N^eps26,N^eps37-diacylated [Aib^8,Arg^34,Lys^37]-GLP-1-(7-37)-peptide (peptide)
peptide: B1 peptide with H25W, Q28R
modifications: Aib at 8; eps-amino of Lys26 and Lys37 each acylated with 12-(4-carboxyphenoxy)dodecanoyl-gGlu-Ser-Ser-Gly-Ser-Ser-Gly
B5: GLP-1 derivative of Example 25 (Chem. 44), N^eps26,N^eps37-diacylated [Aib^8,Arg^34,Lys^37]-GLP-1-(7-37)-peptide (peptide)
peptide: B1 peptide with H25W, Q28R
modifications: Aib at 8; eps-amino of Lys26 and Lys37 each acylated with 12-(4-carboxyphenoxy)dodecanoyl-gGlu-Ser-Ser-Gly-Ser-Ser-Gly-eps-Lys
B6: GLP-1 derivative of Example 29 (Chem. 48), N^eps26,N^eps37-diacylated [Aib^8,Arg^34,Lys^37]-GLP-1-(7-37)-peptide (peptide)
peptide: B1 peptide with H25W, Q28R
modifications: Aib at 8; eps-amino of Lys26 and Lys37 each acylated with 12-(4-carboxyphenoxy)dodecanoyl-gGlu-Ser-Gly-Ser-eps-Lys
B7: GLP-1 derivative of Example 31 (Chem. 50), N^eps26,N^eps37-diacylated [Aib^8,Arg^34,Lys^37]-GLP-1-(7-37)-peptide (peptide)
peptide: B1 peptide with H25W, Q28R
modifications: Aib at 8; eps-amino of Lys26 and Lys37 each acylated with 11-(4-carboxyphenoxy)undecanoyl-gGlu-Ser-Ser-Gly-Ser-Ser-Gly
B8: GLP-1 derivative of Example 11 (Chem. 30), N^eps26- and C-terminal-Lys-N^eps-diacylated [Aib^8,His^31,Gln^34]-GLP-1-(7-37)-peptidyl-Lys (peptide)
peptide: HXEGTFTSDVSSYLEGQAAKEFIAHLVQGRGK
modifications: Aib at 8; eps-amino of Lys26 and of the added C-terminal Lys (position 38) each acylated with 10-(4-carboxyphenoxy)decanoyl-gGlu-Ser-Ser-Gly-Ser-Ser-Gly

target: T1, human GLP-1 receptor (human, UniProt P43220 24-463); assay: cell-based or functional assay

Binder | In vitro potency (AlphaScreen cAMP; membranes) EC50 [nM]
HAEGTFTSDVSK([AEEA-AEEA-γGlu-Decanoyl(10-(4-HOOC-PhO))])YLEEQAAK([AEEA-AEEA-γGlu-Decanoyl(10-(4-HOOC-PhO))])EFIAWLVQGRG [Comparative compound of Example 5a: Compound of Example 38, Chem. 57, in WO 2012/062803] | 0.224
H[Aib]EGTFTSDVSK([AEEA-AEEA-γGlu-13‑carboxytridecanoyl])YLEEQAVREFIAK([AEEA-AEEA-γGlu-13‑carboxytridecanoyl])LVRGRG [Comparative compound of Example 6a: Compound of Example 74, Chem. 93, in WO 2012/062803] | 0.062
B1 | 0.582
H[Aib]EGTFTSDVSK([AEEA-AEEA-γGlu-Decanoyl(10-(4-HOOC-PhO))])YLEEQAAK([AEEA-AEEA-γGlu-Decanoyl(10-(4-HOOC-PhO))])EFIAWLVQGRG [Comparative compound of Example 7a: Compound of Example 2, Chem. 21, in WO 2012/062803] | 0.395
B2 | 0.116
B3 | 0.145
B4 | 0.166
B5 | 0.252
B6 | 0.238
B7 | 0.027
H[Aib]EGTFTSDVSK([AEEA-AEEA-γGlu-Decanoyl(10-(4-HOOC-PhO))])YLEGQAAK([AEEA-AEEA-γGlu-Decanoyl(10-(4-HOOC-PhO))])EFIAWLVQGRG [Comparative compound of Example 9a: Compound of Example 92, Chem. 111, in WO 2012/062803] | 1.59
B8 | 0.381
H[Aib]EGTFTSDVSK([Gly-Ser-Ser-Gly-Ser-Ser-γGlu-Dodecanoyl(12-OPh(4-COOH))])YLEGQAAK([Gly-Ser-Ser-Gly-Ser-Ser-γGlu-Dodecanoyl(12-OPh(4-COOH))])EFIAWLVQGRG | 0.314

target: T1, human GLP-1 receptor; assay: cell-based or functional assay; remark: another data set of the same source

Binder | In vitro potency (CRE-luciferase) low albumin EC50 [nM]
HAEGTFTSDVSK([AEEA-AEEA-γGlu-Decanoyl(10-(4-HOOC-PhO))])YLEEQAAK([AEEA-AEEA-γGlu-Decanoyl(10-(4-HOOC-PhO))])EFIAWLVQGRG [Comparative compound of Example 5a: Compound of Example 38, Chem. 57, in WO 2012/062803] | 0.025
H[Aib]EGTFTSDVSK([AEEA-AEEA-γGlu-13‑carboxytridecanoyl])YLEEQAVREFIAK([AEEA-AEEA-γGlu-13‑carboxytridecanoyl])LVRGRG [Comparative compound of Example 6a: Compound of Example 74, Chem. 93, in WO 2012/062803] | 0.062
B1 | 0.132
H[Aib]EGTFTSDVSK([AEEA-AEEA-γGlu-Decanoyl(10-(4-HOOC-PhO))])YLEEQAAK([AEEA-AEEA-γGlu-Decanoyl(10-(4-HOOC-PhO))])EFIAWLVQGRG [Comparative compound of Example 7a: Compound of Example 2, Chem. 21, in WO 2012/062803] | 0.017
B2 | 0.023
B3 | 0.0098
B4 | 0.0052
B6 | 0.005
B7 | 0.0028
H[Aib]EGTFTSDVSK([Gly-Ser-Ser-Gly-Ser-Ser-γGlu-Dodecanoyl(12-OPh(4-COOH))])YLEGQAAK([Gly-Ser-Ser-Gly-Ser-Ser-γGlu-Dodecanoyl(12-OPh(4-COOH))])EFIAWLVQGRG | 0.0096

target: T1, human GLP-1 receptor; assay: SPA, displacement of 125I-GLP-1(7-36)NH2, BHK membranes, 0.001% HSA
Experimental: Test compounds, membranes, SPA-particles and [¹²⁵I] ]-GLP-1(7-36)NH₂ were diluted in assay buffer. 50 ul (micro liter) buffer (“low albumin” experiment containing 0.001% HSA) was added to Optiplate, and 25 ul of test compounds were added. 5-10 μg membrane protein/sample was added (50 μl) corresponding to 0.1-0.2 mg protein/ml (to be preferably optimised for each membrane preparation). SPA-particles (Wheatgerm agglutinin SPA beads, Perkin Elmer, #RPNQ0001) were added in an amount of 0.5 mg/well (50 μl). The incubation was started with [¹²⁵I]-GLP-1]-(7-36)NH₂ (final concentration 0.06 nM corresponding to 49.880 DPM, 25 μl). The plates were sealed with PlateSealer and incubated for 120 minutes at 30° C. while shaking. The plates were centrifuged (1500 rpm, 10 min) and counted in Topcounter.
The IC₅₀ value was read from the curve as the concentration which displaces 50% of ¹²⁵I-GLP-1 from the receptor.

Binder | IC50 [nM]
HAEGTFTSDVSK([AEEA-AEEA-γGlu-Decanoyl(10-(4-HOOC-PhO))])YLEEQAAK([AEEA-AEEA-γGlu-Decanoyl(10-(4-HOOC-PhO))])EFIAWLVQGRG [Comparative compound of Example 5a: Compound of Example 38, Chem. 57, in WO 2012/062803] | 5.8
H[Aib]EGTFTSDVSK([AEEA-AEEA-γGlu-13‑carboxytridecanoyl])YLEEQAVREFIAK([AEEA-AEEA-γGlu-13‑carboxytridecanoyl])LVRGRG [Comparative compound of Example 6a: Compound of Example 74, Chem. 93, in WO 2012/062803] | 0.8
B1 | 44.5
H[Aib]EGTFTSDVSK([AEEA-AEEA-γGlu-Decanoyl(10-(4-HOOC-PhO))])YLEEQAAK([AEEA-AEEA-γGlu-Decanoyl(10-(4-HOOC-PhO))])EFIAWLVQGRG [Comparative compound of Example 7a: Compound of Example 2, Chem. 21, in WO 2012/062803] | 7.03
B2 | 8.99
B3 | 4.61
B4 | 0.19
B5 | 0.27
B6 | 0.27
B7 | 0.17
H[Aib]EGTFTSDVSK([AEEA-AEEA-γGlu-Decanoyl(10-(4-HOOC-PhO))])YLEGQAAK([AEEA-AEEA-γGlu-Decanoyl(10-(4-HOOC-PhO))])EFIAWLVQGRG [Comparative compound of Example 9a: Compound of Example 92, Chem. 111, in WO 2012/062803] | 8.09
B8 | 12.8
H[Aib]EGTFTSDVSK([Gly-Ser-Ser-Gly-Ser-Ser-γGlu-Dodecanoyl(12-OPh(4-COOH))])YLEGQAAK([Gly-Ser-Ser-Gly-Ser-Ser-γGlu-Dodecanoyl(12-OPh(4-COOH))])EFIAWLVQGRG | 0.84
